Measured values as given in publication PMC11406985.

Biological target: medusavirus major capsid protein (medusavirus)
Assay: cryo-EM structure; purified medusavirus particles (DNA-empty and DNA-full) assembled in infected amoebae, in PBS; single particle analysis with block-based reconstruction of fivefold, threefold and twofold blocks, 7.3-9.9 Å; AlphaFold2 model of the MCP fitted into the map

Substance: medusavirus major capsid protein (natural protein)
- stoichiometry N: 3
